The values below come from paper PMC6071076, “Transcriptome-Wide Identification of an Aurone Glycosyltransferase with Glycosidase Activity from Ornithogalum saundersiae” (Genes, 2018).

Substrate in data set [1]: O=C1/C(=C/c2ccc(O)c(O)c2)Oc2cc(O)ccc21
Kind of data set: HPLC glucosylation assay, Lineweaver-Burk. The data set is classed as biochemical, Ornithogalum saundersiae. To be noted: 1 mM UDP-Glc fixed; sulfuretin 0-1 mM. The text has this:
(§1) HPLC glucosylation assay, Lineweaver-Burk on OsUGT1

Substrate in data set [2]: O=c1cc(-c2ccccc2)oc2c(O)c(O)ccc12
Kind of data set: HPLC glucosylation assay, Lineweaver-Burk. The class given is biochemical, Ornithogalum saundersiae. To be noted: 1 mM UDP-Glc fixed; 7,8-dihydroxyflavone 0-1 mM.
Description: as §1

B1: OsUGT1 (Ornithogalum saundersiae) (protein)
chain: MEGKKQHVVLFPFMGQGHITPFLLLAELIHEYYPDYTITLVNTPLNIRNLQSSLPPGSKINLKSLPFDASSHGLPPDTENTKAIPFHLFINLFRASETLEPAFERLIAGITEEDGIPPLCIIADNFFSWTLHIARKFGVFHSTFLTSGAYGSALLFSLWKYLPHRNAYSDEFSLPDFPEIRLHHTQLSNILVVADGGDAWSVLLRRLNELCTRSDAVLVNTVKEFEARGLSMLREQLQGPIFPVGPLLCTSASHSMGMDLSDWLDSQPSASVLYVSFGSQNTIRASQMLKLAMALEATSRPFIWVIRPPVGFDVRVQFKSEWLPEGFEDRMRGTKQGFIVHQWAPQVEILSHPSTGAFLSHCGWNSVLESLVHGVPIIGWPLSAEQFYNSKFLMEEVGVCVEAARGNRESSEVKKEEVERAIEIVMDNEEIRRKAKETARVLKSALKEEENNTNVGSSLRGLKEFFQTALSKRVVT
Consider B1, for which the Km in data set [1] was determined as 159 ± 11 µM; in data set [2], 713 ± 69 µM. The Vmax amounted to 3.47 µM/min in data set [1] and 28.3 µM/min in data set [2].

One may read the Km as the substrate concentration at which the rate is half of its maximum. As a reminder, the Vmax is the rate approached at saturating substrate.
